Source: publication PMC4358367, “Structural basis of diverse membrane target recognitions by ankyrins” (eLife, 2014)
Where two headings read alike, the source gives them in different places.

Key:
[1] = target: T1, AnkG_repeats (24 ANK repeats of rat 190 kDa ankyrin-G, residues 38–855) (rat, UniProt O70511 38-855); experiment: ITC; VP-ITC at 25°C; 50 mM Tris pH 7.5, 100 mM NaCl, 1 mM EDTA, 1 mM DTT; binding partner (AS, Nav1.2 ABD proteins, neurofascin ABD; 200–300 µM) in the syringe, ANK repeats (20–30 µM) in the cell; one-site binding model; settings: both partners purified
T1 construct: ankyrin-G (AnkG), rat, 190 kDa isoform used as template, ANK repeats, residues 38-855; also called AnkG ANK repeats; wild-type ANK repeats; source: E. coli BL21 (DE3), purified
T1 sequence (looked up): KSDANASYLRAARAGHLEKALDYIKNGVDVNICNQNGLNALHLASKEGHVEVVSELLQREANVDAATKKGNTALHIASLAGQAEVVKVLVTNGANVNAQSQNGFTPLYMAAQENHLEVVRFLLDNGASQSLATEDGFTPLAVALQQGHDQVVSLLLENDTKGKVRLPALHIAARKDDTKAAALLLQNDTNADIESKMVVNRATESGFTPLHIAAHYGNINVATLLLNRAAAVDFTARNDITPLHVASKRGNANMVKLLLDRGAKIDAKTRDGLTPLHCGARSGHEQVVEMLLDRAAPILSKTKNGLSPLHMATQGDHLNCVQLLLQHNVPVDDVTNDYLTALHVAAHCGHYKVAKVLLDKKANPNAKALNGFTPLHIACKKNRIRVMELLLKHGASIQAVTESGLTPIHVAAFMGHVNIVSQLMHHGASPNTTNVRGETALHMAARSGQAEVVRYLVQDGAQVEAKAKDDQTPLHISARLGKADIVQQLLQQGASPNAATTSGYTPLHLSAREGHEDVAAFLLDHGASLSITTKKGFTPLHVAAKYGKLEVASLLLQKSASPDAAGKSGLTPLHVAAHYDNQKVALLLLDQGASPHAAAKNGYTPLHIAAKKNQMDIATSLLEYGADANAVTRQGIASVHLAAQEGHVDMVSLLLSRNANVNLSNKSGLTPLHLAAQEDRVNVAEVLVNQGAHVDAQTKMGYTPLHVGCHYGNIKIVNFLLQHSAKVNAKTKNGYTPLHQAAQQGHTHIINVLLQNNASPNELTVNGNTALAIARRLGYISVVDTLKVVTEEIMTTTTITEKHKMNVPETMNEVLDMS

[2] = target: T2, AnkG_repeats (24 ANK repeats of rat 190 kDa ankyrin-G, residues 38–855) (rat, UniProt O70511 38-855); experiment: ITC
T2 chain: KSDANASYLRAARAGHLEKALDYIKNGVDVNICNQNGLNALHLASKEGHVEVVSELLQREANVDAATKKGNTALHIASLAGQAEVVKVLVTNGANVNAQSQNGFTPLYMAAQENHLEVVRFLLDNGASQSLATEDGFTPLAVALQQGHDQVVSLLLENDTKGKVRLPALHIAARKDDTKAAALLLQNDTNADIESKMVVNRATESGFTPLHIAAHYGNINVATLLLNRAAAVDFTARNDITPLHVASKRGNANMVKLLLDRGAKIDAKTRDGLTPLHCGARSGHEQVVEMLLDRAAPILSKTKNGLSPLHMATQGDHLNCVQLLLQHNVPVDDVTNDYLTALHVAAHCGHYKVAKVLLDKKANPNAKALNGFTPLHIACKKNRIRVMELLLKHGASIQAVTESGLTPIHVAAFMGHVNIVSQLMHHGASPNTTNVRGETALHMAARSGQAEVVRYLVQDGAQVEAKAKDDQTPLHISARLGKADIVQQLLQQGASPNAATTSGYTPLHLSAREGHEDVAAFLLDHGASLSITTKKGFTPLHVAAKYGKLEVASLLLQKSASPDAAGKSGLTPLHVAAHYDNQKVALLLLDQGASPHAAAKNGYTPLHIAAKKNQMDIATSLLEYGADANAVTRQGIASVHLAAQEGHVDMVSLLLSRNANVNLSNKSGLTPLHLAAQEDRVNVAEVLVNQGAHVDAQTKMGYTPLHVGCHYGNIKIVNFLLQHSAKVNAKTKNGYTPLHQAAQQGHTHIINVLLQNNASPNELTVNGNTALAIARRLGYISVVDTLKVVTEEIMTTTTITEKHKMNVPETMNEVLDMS

[3] = target: T3, AnkR_repeats (24 ANK repeats of ankyrin-R, residues 42–853) (mouse, UniProt Q02357-6 42-853); experiment: ITC; VP-ITC at 25°C; 50 mM Tris pH 7.5, 100 mM NaCl, 1 mM EDTA, 1 mM DTT; binding partner (AS, Nav1.2 ABD proteins, neurofascin ABD; 200–300 µM) in the syringe, ANK repeats (20–30 µM) in the cell; one-site binding model; settings: both partners purified
T3 construct: ankyrin-R (AnkR), mouse, ANK repeats, residues 42-853, PCR amplified from a mouse muscle cDNA library; The thioredoxin-His6 tag was removed with HRV 3C protease 'when needed'; also called AnkR ANK repeats; source: E. coli BL21 (DE3), purified
T3 sequence (looked up): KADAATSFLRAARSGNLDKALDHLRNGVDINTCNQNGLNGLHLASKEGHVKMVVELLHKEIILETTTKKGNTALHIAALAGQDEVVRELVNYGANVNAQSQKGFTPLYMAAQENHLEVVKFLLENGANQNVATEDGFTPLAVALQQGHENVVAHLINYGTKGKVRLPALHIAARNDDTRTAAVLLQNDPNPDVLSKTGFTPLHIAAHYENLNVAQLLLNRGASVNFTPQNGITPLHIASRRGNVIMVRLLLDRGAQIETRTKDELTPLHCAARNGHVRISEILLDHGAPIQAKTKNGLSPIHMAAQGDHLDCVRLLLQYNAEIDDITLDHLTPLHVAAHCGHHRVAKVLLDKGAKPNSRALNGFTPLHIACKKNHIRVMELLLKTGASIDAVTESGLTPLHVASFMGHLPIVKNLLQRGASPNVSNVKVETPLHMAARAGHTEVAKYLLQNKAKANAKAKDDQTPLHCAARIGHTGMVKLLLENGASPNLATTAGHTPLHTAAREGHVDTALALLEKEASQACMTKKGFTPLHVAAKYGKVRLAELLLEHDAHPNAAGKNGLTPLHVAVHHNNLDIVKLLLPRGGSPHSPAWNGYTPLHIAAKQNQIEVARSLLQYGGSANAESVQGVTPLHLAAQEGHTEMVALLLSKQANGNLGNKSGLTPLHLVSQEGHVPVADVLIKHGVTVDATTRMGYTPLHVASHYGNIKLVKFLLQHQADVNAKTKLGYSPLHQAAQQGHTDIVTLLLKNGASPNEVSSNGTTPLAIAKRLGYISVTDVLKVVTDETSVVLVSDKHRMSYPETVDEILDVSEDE

[4] = target: T4, AnkG ANK repeats R1–6 (truncation of AnkG_repeats with C-terminal capping sequence) (rat | human); experiment: ITC
T4 chain: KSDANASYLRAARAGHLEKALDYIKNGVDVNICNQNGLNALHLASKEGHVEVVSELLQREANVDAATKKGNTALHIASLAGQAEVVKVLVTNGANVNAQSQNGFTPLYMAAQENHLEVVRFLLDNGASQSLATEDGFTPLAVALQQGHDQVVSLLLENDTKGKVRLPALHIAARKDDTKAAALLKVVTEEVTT

[5] = target: T2, AnkG_repeats (24 ANK repeats of rat 190 …); experiment: ITC
[6] = target: T2, AnkG_repeats (24 ANK repeats of rat 190 …); experiment: ITC
[7] = target: T5, AnkB_repeats (24 ANK repeats of human 220 kDa ankyrin-B, residues 28–873) (human, UniProt Q01484 28-873); experiment: ITC; VP-ITC at 25°C; 50 mM Tris pH 7.5, 100 mM NaCl, 1 mM EDTA, 1 mM DTT; binding partner (AS, Nav1.2 ABD proteins, neurofascin ABD; 200–300 µM) in the syringe, ANK repeats (20–30 µM) in the cell; one-site binding model; settings: both partners purified
T5 construct: ankyrin-B (AnkB), human, 220 kDa isoform used as template, ANK repeats, residues 28-873; source: E. coli BL21 (DE3), purified
T5 sequence (looked up): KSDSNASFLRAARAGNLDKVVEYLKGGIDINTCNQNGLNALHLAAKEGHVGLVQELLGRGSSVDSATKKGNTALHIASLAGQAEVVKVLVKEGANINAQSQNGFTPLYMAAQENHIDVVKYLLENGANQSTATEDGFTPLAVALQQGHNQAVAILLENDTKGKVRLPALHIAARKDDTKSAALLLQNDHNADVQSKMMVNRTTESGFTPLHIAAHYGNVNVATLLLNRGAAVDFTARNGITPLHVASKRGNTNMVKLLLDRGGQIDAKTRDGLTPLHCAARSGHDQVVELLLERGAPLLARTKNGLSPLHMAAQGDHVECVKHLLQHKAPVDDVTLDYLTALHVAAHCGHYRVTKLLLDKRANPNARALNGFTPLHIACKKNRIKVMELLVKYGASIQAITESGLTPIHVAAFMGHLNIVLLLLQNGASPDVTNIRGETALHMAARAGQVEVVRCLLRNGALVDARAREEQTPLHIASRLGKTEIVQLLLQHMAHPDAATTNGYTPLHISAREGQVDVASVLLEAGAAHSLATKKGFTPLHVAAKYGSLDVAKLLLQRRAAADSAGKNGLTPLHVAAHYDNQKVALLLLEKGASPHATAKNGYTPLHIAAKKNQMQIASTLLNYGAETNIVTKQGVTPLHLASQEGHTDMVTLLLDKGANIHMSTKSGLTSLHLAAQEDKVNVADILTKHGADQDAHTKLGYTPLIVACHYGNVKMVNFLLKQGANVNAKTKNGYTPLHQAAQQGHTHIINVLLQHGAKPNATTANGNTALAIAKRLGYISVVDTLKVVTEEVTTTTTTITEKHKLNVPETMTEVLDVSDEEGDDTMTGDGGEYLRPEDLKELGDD

[8] = target: T4, AnkG ANK repeats R1–6 (truncation of …); experiment: ITC
[9] = target: T6, AnkB R1-14 (Homo sapiens); experiment: ITC
T6 chain: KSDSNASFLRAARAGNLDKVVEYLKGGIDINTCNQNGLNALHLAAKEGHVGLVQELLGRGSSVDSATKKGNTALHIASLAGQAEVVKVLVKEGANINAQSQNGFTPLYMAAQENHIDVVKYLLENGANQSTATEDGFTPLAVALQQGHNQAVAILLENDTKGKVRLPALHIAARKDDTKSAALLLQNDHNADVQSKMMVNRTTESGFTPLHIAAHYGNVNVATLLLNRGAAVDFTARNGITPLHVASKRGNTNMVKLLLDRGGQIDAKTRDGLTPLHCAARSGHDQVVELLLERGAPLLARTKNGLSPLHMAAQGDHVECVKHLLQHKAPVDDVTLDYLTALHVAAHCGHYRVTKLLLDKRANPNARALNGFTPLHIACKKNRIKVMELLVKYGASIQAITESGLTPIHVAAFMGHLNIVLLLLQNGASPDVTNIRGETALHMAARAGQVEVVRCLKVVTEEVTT

[10] = target: T7, AnkB_repeats_R1–9 (first nine ANK repeats of AnkB, residues 28–318, followed by the capping sequence 814–822) (human, UniProt Q01484 28-318; Q01484 814-822); experiment: ITC
T7 chain: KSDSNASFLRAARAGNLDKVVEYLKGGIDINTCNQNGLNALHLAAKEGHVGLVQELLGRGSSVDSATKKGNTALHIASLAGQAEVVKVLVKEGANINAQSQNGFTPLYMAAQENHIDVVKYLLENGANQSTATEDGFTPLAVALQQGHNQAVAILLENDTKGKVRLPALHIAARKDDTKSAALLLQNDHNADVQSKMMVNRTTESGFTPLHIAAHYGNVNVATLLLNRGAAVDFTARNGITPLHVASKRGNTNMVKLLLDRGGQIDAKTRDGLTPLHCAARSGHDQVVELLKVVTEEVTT

[11] = target: T2, AnkG_repeats (24 ANK repeats of rat 190 …); experiment: ITC

B1: Nav1.2 ABD-N (N-terminal 68-residue fragment of loop 2, residues 1035–1102) (domain or fragment)
chain: KALDEIKPLEDLNNKKDSCISNHTTIEIGKDLNYLKDGNGTTSGIGSSVEKYVVDESDYMSFINNPSL
- Kd [1]: ~8000 nM

B2: Nfasc entire cytoplasmic tail (residues 1132–1240) (domain or fragment)
chain: KRSRGGKYPVREKKDVPLGPEDPKEEDGSFDYSDEDNKPLQGSQTSLDGTIKQQESDDSLVDYGEGGEGQFNEDGSFIGQYTVKKDKEETEGNESSEATSPVNAIYSLA
- Kd [2]: 580 nM

B3: AnkR entire C-terminal regulatory domain (residues 1529–1907) (domain or fragment, mouse, UniProt Q02357-6 1529-1907, looked up)
chain: RQSRNLKPERRHGDREYSLSPSQVNGYSSLQDELLSPASLQYALPSPLCADQYWNEVTVIDAIPLAATEHDTMLEMSDMQVWSAGLTPSLVTAEDSSLECSKAEDSDAIPEWKLEGAHSEDTQGPELGSQDLVEDDTVDSDATNGLADLLGQEEGQRSEKKRQEVSGTEQDTETEVSLVSGQQRVHARITDSPSVRQVLDRSQARTLDWDKQGSTAVHPQEATQSSWQEEVTQGPHSFQRRITTIQGPEPGALQEYEQVLVSTREHVQRGPPETGSPKAGKEPSLWAPESAFSQEVQGDELQNIPGEQVTEEQFTDEQGNIVTKKIIRKVVRQVDSSGAIDTQQHEEVELRGSGLQPDLIEGRKGAQIVKRASLKRGKQ
notes: also called full length AnkR C-terminal domain; C-terminal tail of AnkR; source: E. coli BL21 (DE3), purified
- Kd [3]: ~1000 nM

Binder: TVTVPIAVGESDFENLNTEEFSSESDM (domain or fragment) [Nav1.2_ABD-C (27-residue motif of loop 2, residues 1103–1129)]
- Kd [4]: 2300 nM
- Kd [5]: 2700 nM

B4: AnkR_AS (48-residue auto-inhibitory segment of AnkR, residues 1577–1624) (domain or fragment, mouse, UniProt Q02357-6 1577-1624, looked up)
chain: CADQYWNEVTVIDAIPLAATEHDTMLEMSDMQVWSAGLTPSLVTAEDS
notes: Free AS in ITC; source: E. coli BL21 (DE3), purified
- Kd [6]: 460 nM
- Kd [7]: 400 nM

B5: Nav1.2_ABD (ankyrin binding domain of Nav1.2, residues 1035–1129) (domain or fragment)
chain: KALDEIKPLEDLNNKKDSCISNHTTIEIGKDLNYLKDGNGTTSGIGSSVEKYVVDESDYMSFINNPSLTVTVPIAVGESDFENLNTEEFSSESDM
- Kd [8]: 2300 nM
- Kd [9]: 290 nM
- Kd [10]: 3500 nM

B6: E1112K-Nav1.2 (ABD with the charge reversal mutation E1112K) (domain or fragment)
chain: KALDEIKPLEDLNNKKDSCISNHTTIEIGKDLNYLKDGNGTTSGIGSSVEKYVVDESDYMSFINNPSLTVTVPIAVGKSDFENLNTEEFSSESDM
- Kd [11]: > 50000 nM
